Source: the supplement of paper PMC5998384

Experiments:
HeLa Kyoto [1] = experiment: solubility change mitosis vs G1/S (difference of NP-40 vs SDS log2 ratios) (log2 ratio difference); higher = more soluble in mitosis
HeLa Kyoto [2] = experiment: thermal stability score vs G1/S (z-score of summed log2 fold changes over temperatures); higher = more thermally stable than in G1/S
HeLa Kyoto [3] = experiment: solubility in G1/S (NP-40 vs SDS abundance) (log2 ratio); higher = more soluble; details: cell cycle stage: G1/S
HeLa Kyoto [4] = experiment: melting temperature (median over replicates), in situ; higher = more thermally stable
[5] = cell cycle stage: early G1 (4.5 h after nocodazole release)
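Throughout, for melting temperature (median over replicates), in situ: HeLa Kyoto cells synchronized by double thymidine or nocodazole block, proteins quantified by TMT10plex mass spectrometry, three independent biological replicates.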
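Throughout, for solubility change mitosis vs G1/S (difference of NP-40 vs SDS log2 ratios): synchronized HeLa Kyoto cells (double thymidine block for G1/S, nocodazole release for mitosis), protein amounts in NP-40 versus SDS lysates quantified by mass spectrometry, three biological replicates.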
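Throughout, for solubility in G1/S (NP-40 vs SDS abundance): HeLa Kyoto cells arrested at G1/S by double thymidine block, proteins quantified by TMT10plex mass spectrometry in mild NP-40 versus SDS extracts, three biological replicates.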
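Throughout, for thermal stability score vs G1/S (z-score of summed log2 fold changes over temperatures): synchronized HeLa Kyoto cells, proteins quantified by TMT10plex mass spectrometry, three biological replicates, mitosis taken 0.5 h after nocodazole release, G1/S directly after double thymidine block.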

Chain of DGKA (chain, as listed by the source): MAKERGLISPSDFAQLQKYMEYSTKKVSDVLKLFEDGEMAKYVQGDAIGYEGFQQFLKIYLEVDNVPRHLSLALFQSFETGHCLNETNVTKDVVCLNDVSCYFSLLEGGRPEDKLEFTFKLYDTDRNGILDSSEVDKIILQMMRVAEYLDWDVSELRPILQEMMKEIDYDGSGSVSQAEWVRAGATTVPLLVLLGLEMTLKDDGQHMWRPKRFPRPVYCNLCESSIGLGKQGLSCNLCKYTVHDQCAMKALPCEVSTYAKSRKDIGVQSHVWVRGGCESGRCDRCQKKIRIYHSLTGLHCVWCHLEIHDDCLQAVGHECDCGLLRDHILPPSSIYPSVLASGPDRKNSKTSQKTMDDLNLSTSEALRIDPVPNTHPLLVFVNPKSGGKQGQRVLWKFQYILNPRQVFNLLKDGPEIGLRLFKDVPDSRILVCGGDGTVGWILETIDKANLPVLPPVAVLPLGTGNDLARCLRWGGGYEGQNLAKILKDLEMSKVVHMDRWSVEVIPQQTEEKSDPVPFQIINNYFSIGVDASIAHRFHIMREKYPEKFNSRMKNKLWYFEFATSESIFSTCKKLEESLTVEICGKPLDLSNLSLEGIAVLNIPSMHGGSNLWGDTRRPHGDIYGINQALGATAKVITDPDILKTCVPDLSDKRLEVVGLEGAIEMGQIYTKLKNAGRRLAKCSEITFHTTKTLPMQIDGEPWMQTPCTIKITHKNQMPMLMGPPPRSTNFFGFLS
Chain of DENND4A (chain, as listed by the source): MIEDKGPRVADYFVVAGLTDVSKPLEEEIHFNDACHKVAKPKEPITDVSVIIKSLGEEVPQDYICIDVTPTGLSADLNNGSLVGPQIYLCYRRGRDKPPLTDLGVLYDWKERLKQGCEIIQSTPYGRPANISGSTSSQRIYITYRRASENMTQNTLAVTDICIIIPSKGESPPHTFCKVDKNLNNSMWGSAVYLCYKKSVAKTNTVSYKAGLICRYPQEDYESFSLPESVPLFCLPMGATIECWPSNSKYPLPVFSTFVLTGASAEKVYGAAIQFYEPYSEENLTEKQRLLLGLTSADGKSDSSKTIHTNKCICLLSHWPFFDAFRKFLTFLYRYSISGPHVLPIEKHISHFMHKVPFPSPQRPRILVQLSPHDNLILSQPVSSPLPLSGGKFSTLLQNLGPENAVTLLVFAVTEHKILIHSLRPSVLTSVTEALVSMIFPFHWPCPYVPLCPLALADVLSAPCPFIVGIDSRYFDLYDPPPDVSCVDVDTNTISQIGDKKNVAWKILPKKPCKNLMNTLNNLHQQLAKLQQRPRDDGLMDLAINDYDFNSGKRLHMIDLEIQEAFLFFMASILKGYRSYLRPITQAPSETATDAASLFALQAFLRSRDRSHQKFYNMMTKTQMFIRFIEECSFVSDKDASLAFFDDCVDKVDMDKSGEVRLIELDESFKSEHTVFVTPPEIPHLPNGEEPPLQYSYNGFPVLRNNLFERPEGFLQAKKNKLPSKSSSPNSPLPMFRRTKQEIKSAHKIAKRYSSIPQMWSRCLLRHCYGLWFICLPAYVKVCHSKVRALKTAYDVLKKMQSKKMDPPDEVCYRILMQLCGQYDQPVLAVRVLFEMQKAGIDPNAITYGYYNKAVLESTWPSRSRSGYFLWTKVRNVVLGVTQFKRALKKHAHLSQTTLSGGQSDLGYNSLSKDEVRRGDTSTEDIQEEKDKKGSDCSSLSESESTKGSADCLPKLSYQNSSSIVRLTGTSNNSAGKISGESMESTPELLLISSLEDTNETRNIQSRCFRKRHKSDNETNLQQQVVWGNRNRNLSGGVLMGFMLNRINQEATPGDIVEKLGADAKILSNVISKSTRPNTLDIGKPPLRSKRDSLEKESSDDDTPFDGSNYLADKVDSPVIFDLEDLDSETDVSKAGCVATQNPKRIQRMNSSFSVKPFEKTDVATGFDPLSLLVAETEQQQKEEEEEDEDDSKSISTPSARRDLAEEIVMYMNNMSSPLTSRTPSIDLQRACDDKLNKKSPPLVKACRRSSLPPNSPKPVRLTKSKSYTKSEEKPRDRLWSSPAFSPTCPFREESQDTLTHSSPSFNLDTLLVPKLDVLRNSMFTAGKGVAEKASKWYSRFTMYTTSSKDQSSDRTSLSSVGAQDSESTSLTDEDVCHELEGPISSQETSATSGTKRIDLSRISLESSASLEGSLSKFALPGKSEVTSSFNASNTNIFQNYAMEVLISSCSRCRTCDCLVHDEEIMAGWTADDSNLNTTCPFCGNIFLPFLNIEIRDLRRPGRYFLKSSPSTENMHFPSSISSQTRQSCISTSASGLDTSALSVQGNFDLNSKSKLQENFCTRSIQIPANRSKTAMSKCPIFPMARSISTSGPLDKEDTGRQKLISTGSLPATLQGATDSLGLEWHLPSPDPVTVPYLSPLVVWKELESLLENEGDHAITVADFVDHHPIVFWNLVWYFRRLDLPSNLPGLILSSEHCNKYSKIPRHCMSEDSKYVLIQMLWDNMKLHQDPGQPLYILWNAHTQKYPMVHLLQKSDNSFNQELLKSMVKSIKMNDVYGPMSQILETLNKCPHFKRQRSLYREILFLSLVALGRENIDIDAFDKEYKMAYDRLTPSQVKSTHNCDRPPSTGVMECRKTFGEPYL

Substance	solubility change mitosis (log2) (HeLa Kyoto [1])	thermal stability score (HeLa Kyoto [2]; [5])	thermal stability score (HeLa Kyoto [2]; cell cycle stage: mitosis)	solubility in G1/S (log2) (HeLa Kyoto [3])	melting temperature (HeLa Kyoto [4]; cell cycle stage: G1/S) [°C]	melting temperature (HeLa Kyoto [4]; cell cycle stage: mitosis) [°C]
MSQGILSPPAGLLSDDDVVVSPMFESTAADLGSVVRKNLLSDCSVVSTSLEDKQQVPSEDSMEKVKVYLRVRPLLPSELERQEDQGCVRIENVETLVLQAPKDSFALKSNERGIGQATHRFTFSQIFGPEVGQASFFNLTVKEMVKDVLKGQNWLIYTYGVTNSGKTHTIQGTIKDGGILPRSLALIFNSLQGQLHPTPDLKPLLSNEVIWLDSKQIRQEEMKKLSLLNGGLQEEELSTSLKRSVYIESRIGTSTSFDSGIAGLSSISQCTSSSQLDETSHRWAQPDTAPLPVPANIRFSIWISFFEIYNELLYDLLEPPSQQRKRQTLRLCEDQNGNPYVKDLNWIHVQDAEEAWKLLKVGRKNQSFASTHLNQNSSRSHSIFSIRILHLQGEGDIVPKISELSLCDLAGSERCKDQKSGERLKEAGNINTSLHTLGRCIAALRQNQQNRSKQNLVPFRDSKLTRVFQGFFTGRGRSCMIVNVNPCASTYDETLHVAKFSAIASQLVHAPPMQLGFPSLHSFIKEHSLQVSPSLEKGAKADTGLDDDIENEADISMYGKEELLQVVEAMKTLLLKERQEKLQLEMHLRDEICNEMVEQMQQREQWCSEHLDTQKELLEEMYEEKLNILKESLTSFYQEEIQERDEKIEELEALLQEARQQSVAHQQSGSELALRRSQRLAASASTQQLQEVKAKLQQCKAELNSTTEELHKYQKMLEPPPSAKPFTIDVDKKLEEGQKNIRLLRTELQKLGESLQSAERACCHSTGAGKLRQALTTCDDILIKQDQTLAELQNNMVLVKLDLRKKAACIAEQYHTVLKLQGQVSAKKRLGTNQENQQPNQQPPGKKPFLRNLLPRTPTCQSSTDCSPYARILRSRRSPLLKSGPFGKKY [KIF20A]	-0.0791	0.449	3.61	-0.582	–	–
DGKA	-0.157	0.0904	0.484	-0.0832	–	–
MAASGVEKSSKKKTEKKLAAREEAKLLAGFMGVMNNMRKQKTLCDVILMVQERKIPAHRVVLAAASHFFNLMFTTNMLESKSFEVELKDAEPDIIEQLVEFAYTARISVNSNNVQSLLDAANQYQIEPVKKMCVDFLKEQVDASNCLGISVLAECLDCPELKATADDFIHQHFTEVYKTDEFLQLDVKRVTHLLNQDTLTVRAEDQVYDAAVRWLKYDEPNRQPFMVDILAKVRFPLISKNFLSKTVQAEPLIQDNPECLKMVISGMRYHLLSPEDREELVDGTRPRRKKHDYRIALFGGSQPQSCRYFNPKDYSWTDIRCPFEKRRDAACVFWDNVVYILGGSQLFPIKRMDCYNVVKDSWYSKLGPPTPRDSLAACAAEGKIYTSGGSEVGNSALYLFECYDTRTESWHTKPSMLTQRCSHGMVEANGLIYVCGGSLGNNVSGRVLNSCEVYDPATETWTELCPMIEARKNHGLVFVKDKIFAVGGQNGLGGLDNVEYYDIKLNEWKMVSPMPWKGVTVKCAAVGSIVYVLAGFQGVGRLGHILEYNTETDKWVANSKVRAFPVTSCLICVVDTCGANEETLET [KLHL7]	0.322	0.201	-0.116	-0.622	–	–
MAPSLWKGLVGIGLFALAHAAFSAAQHRSYMRLTEKEDESLPIDIVLQTLLAFAVTCYGIVHIAGEFKDMDATSELKNKTFDTLRNHPSFYVFNHRGRVLFRPSDTANSSNQDALSSNTSLKLRKLESLRR [MMGT1]	-0.109	-0.869	-1.57	-0.125	–	–
MDAATLTYDTLRFAEFEDFPETSEPVWILGRKYSIFTEKDEILSDVASRLWFTYRKNFPAIGGTGPTSDTGWGCMLRCGQMIFAQALVCRHLGRDWRWTQRKRQPDSYFSVLNAFIDRKDSYYSIHQIAQMGVGEGKSIGQWYGPNTVAQVLKKLAVFDTWSSLAVHIAMDNTVVMEEIRRLCRTSVPCAGATAFPADSDRHCNGFPAGAEVTNRPSPWRPLVLLIPLRLGLTDINEAYVETLKHCFMMPQSLGVIGGKPNSAHYFIGYVGEELIYLDPHTTQPAVEPTDGCFIPDESFHCQHPPCRMSIAELDPSIAVGFFCKTEDDFNDWCQQVKKLSLLGGALPMFELVELQPSHLACPDVLNLSLDSSDVERLERFFDSEDEDFEILSL [ATG4B]	-0.28	-0.634	1.02	-0.00856	–	–
MKEEAFLRRRFSLCPPSSTPQKVDPRKLTRNLLLSGDNELYPLSPGKDMEPNGPSLPRDEGPPTPSSATKVPPAEYRLCNGSDKECVSPTARVTKKETLKAQKENYRQEKKRATRQLLSALTDPSVVIMADSLKIRGTLKSWTKLWCVLKPGVLLIYKTPKVGQWVGTVLLHCCELIERPSKKDGFCFKLFHPLDQSVWAVKGPKGESVGSITQPLPSSYLIFRAASESDGRCWLDALELALRCSSLLRLGTCKPGRDGEPGTSPDASPSSLCGLPASATVHPDQDLFPLNGSSLENDAFSDKSERENPEESDTETQDHSRKTESGSDQSETPGAPVRRGTTYVEQVQEELGELGEASQVETVSEENKSLMWTLLKQLRPGMDLSRVVLPTFVLEPRSFLNKLSDYYYHADLLSRAAVEEDAYSRMKLVLRWYLSGFYKKPKGIKKPYNPILGETFRCCWFHPQTDSRTFYIAEQVSHHPPVSAFHVSNRKDGFCISGSITAKSRFYGNSLSALLDGKATLTFLNRAEDYTLTMPYAHCKGILYGTMTLELGGKVTIECAKNNFQAQLEFKLKPFFGGSTSINQISGKITSGEEVLASLSGHWDRDVFIKEEGSGSSALFWTPSGEVRRQRLRQHTVPLEEQTELESERLWQHVTRAISKGDQHRATQEKFALEEAQRQRARERQESLMPWKPQLFHLDPITQEWHYRYEDHSPWDPLKDIAQFEQDGILRTLQQEAVARQTTFLGSPGPRHERSGPDQRLRKASDQPSGHSQATESSGSTPESCPELSDEEQDGDFVPGGESPCPRCRKEARRLQALHEAILSIREAQQELHRHLSAMLSSTARAAQAPTPGLLQSPRSWFLLCVFLACQLFINHILK [OSBPL5]	0.12	0.206	0.353	-0.0107	–	–
MMPSRTNLATGIPSSKVKYSRLSSTDDGYIDLQFKKTPPKIPYKAIALATVLFLIGAFLIIIGSLLLSGYISKGGADRAVPVLIIGILVFLPGFYHLRIAYYASKGYRGYSYDDIPDFDD [TMEM230]	-0.0463	-1.72	-2.3	0.0716	–	–
DENND4A	-0.246	-0.12	-0.608	0.0407	–	–
MKDYDELLKYYELHETIGTGGFAKVKLACHILTGEMVAIKIMDKNTLGSDLPRIKTEIEALKNLRHQHICQLYHVLETANKIFMVLEYCPGGELFDYIISQDRLSEEETRVVFRQIVSAVAYVHSQGYAHRDLKPENLLFDEYHKLKLIDFGLCAKPKGNKDYHLQTCCGSLAYAAPELIQGKSYLGSEADVWSMGILLYVLMCGFLPFDDDNVMALYKKIMRGKYDVPKWLSPSSILLLQQMLQVDPKKRISMKNLLNHPWIMQDYNYPVEWQSKNPFIHLDDDCVTELSVHHRNNRQTMEDLISLWQYDHLTATYLLLLAKKARGKPVRLRLSSFSCGQASATPFTDIKSNNWSLEDVTASDKNYVAGLIDYDWCEDDLSTGAATPRTSQFTKYWTESNGVESKSLTPALCRTPANKLKNKENVYTPKSAVKNEEYFMFPEPKTPVNKNQHKREILTTPNRYTTPSKARNQCLKETPIKIPVNSTGTDKLMTGVISPERRCRSVELDLNQAHMEETPKRKGAKVFGSLERGLDKVITVLTRSKRKGSARDGPRRLKLHYNVTTTRLVNPDQLLNEIMSILPKKHVDFVQKGYTLKCQTQSDFGKVTMQFELEVCQLQKPDVVGIRRQRLKGDAWVYKRLVEDILSSCKV [MELK]	0.0602	-0.242	0.0849	-0.42	–	–
MPSEGRCWETLKALRSSDKGRLCYYRDWLLRREDVLEECMSLPKLSSYSGWVVEHVLPHMQENQPLSETSPSSTSASALDQPSFVPKSPDASSAFSPASPATPNGTKGKDESQHTESMVLQSSRGIKVEGCVRMYELVHRMKGTEGLRLWQEEQERKVQALSEMASEQLKRFDEWKELKQHKEFQDLREVMEKSSREALGHQEKLKAEHRHRAKILNLKLREAEQQRVKQAEQERLRKEEGQIRLRALYALQEEMLQLSQQLDASEQHKALLKVDLAAFQTRGNQLCSLISGIIRASSESSYPTAESQAEAERALREMRDLLMNLGQEITRACEDKRRQDEEEAQVKLQEAQMQQGPEAHKEPPAPSQGPGGKQNEDLQVKVQDITMQWYQQLQDASMQCVLTFEGLTNSKDSQAKKIKMDLQKAATIPVSQISTIAGSKLKEIFDKIHSLLSGKPVQSGGRSVSVTLNPQGLDFVQYKLAEKFVKQGEEEVASHHEAAFPIAVVASGIWELHPRVGDLILAHLHKKCPYSVPFYPTFKEGMALEDYQRMLGYQVKDSKVEQQDNFLKRMSGMIRLYAAIIQLRWPYGNRQEIHPHGLNHGWRWLAQILNMEPLSDVTATLLFDFLEVCGNALMKQYQVQFWKMLILIKEDYFPRIEAITSSGQMGSFIRLKQFLEKCLQHKDIPVPKGFLTSSFWRS [GLE1]	0.773	0.568	0.433	-0.966	–	–
MPLRKMKIPFLLLFFLWEAESHAASRPNIILVMADDLGIGDPGCYGNKTIRTPNIDRLASGGVKLTQHLAASPLCTPSRAAFMTGRYPVRSGMASWSRTGVFLFTASSGGLPTDEITFAKLLKDQGYSTALIGKWHLGMSCHSKTDFCHHPLHHGFNYFYGISLTNLRDCKPGEGSVFTTGFKRLVFLPLQIVGVTLLTLAALNCLGLLHVPLGVFFSLLFLAALILTLFLGFLHYFRPLNCFMMRNYEIIQQPMSYDNLTQRLTVEAAQFIQRNTETPFLLVLSYLHVHTALFSSKDFAGKSQHGVYGDAVEEMDWSVGQILNLLDELRLANDTLIYFTSDQGAHVEEVSSKGEIHGGSNGIYKGGKANNWEGGIRVPGILRWPRVIQAGQKIDEPTSNMDIFPTVAKLAGAPLPEDRIIDGRDLMPLLEGKSQRSDHEFLFHYCNAYLNAVRWHPQNSTSIWKAFFFTPNFNPVGSNGCFATHVCFCFGSYVTHHDPPLLFDISKDPRERNPLTPASEPRFYEILKVMQEAADRHTQTLPEVPDQFSWNNFLWKPWLQLCCPSTGLSCQCDREKQDKRLSR	-0.0688	–	–	0.0818	55.8	55.3
MATQAHSLSYAGCNFLRQRLVLSTLSGRPVKIRKIRARDDNPGLRDFEASFIRLLDKITNGSRIEINQTGTTLYYQPGLLYGGSVEHDCSVLRGIGYYLESLLCLAPFMKHPLKIVLRGVTNDQVDPSVDVLKATALPLLKQFGIDGESFELKIVRRGMPPGGGGEVVFSCPVRKVLKPIQLTDPGKIKRIRGMAYSVRVSPQMANRIVDSARSILNKFIPDIYIYTDHMKGVNSGKSPGFGLSLVAETTSGTFLSAELASNPQGQGAAVLPEDLGRNCARLLLEEIYRGGCVDSTNQSLALLLMTLGQQDVSKVLLGPLSPYTIEFLRHLKSFFQIMFKIETKPCGEELKGGDKVLMTCVGIGFSNLSKTLK [RCL1]	0.888	–	–	-1.92	52.4	52.3
MTGKSVKDVDRYQAVLANLLLEEDNKFCADCQSKGPRWASWNIGVFICIRCAGIHRNLGVHISRVKSVNLDQWTQEQIQCMQEMGNGKANRLYEAYLPETFRRPQIDPAVEGFIRDKYEKKKYMDRSLDINAFRKEKDDKWKRGSEPVPEKKLEPVVFEKVKMPQKKEDPQLPRKSSPKSTAPVMDLLGLDAPVACSIANSKTSNTLEKDLDLLASVPSPSSSGSRKVVGSMPTAGSAGSVPENLNLFPEPGSKSEEIGKKQLSKDSILSLYGSQTPQMPTQAMFMAPAQMAYPTAYPSFPGVTPPNSIMGSMMPPPVGMVAQPGASGMVAPMAMPAGYMGGMQASMMGVPNGMMTTQQAGYMAGMAAMPQTVYGVQPAQQLQWNLTQMTQQMAGMNFYGANGMMNYGQSMSGGNGQAANQTLSPQMWK [SMAP2]	-0.0647	–	–	0.111	48.3	49.6
